± gives the uncertainty stated by the source.

From the Human Domainome abundance scans (Beltran et al. 2025) come the findings set out here.

This data set in a line: abundance fitness (aPCA) (normalised: wild type 0, dead -1); higher = more abundant; growth selection in yeast, the domain comes from the species named. Conditions: Homo sapiens.
With “E3 ubiquitin-protein ligase NEDD4-like T209S, Q96PU5”, the abundance fitness was found to be 0.036 ± 0.073.

Turning to “E3 ubiquitin-protein ligase NEDD4-like T209V, Q96PU5”, the abundance fitness was -0.079 ± 0.067.

In the case of “E3 ubiquitin-protein ligase NEDD4-like T209Y, Q96PU5”, the abundance fitness is -0.649 ± 0.11.

As to “E3 ubiquitin-protein ligase NEDD4-like T218A, Q96PU5”, the abundance fitness is -0.045 ± 0.057.

As to “E3 ubiquitin-protein ligase NEDD4-like T218C, Q96PU5”, the abundance fitness was -0.031 ± 0.076.

For the substance “E3 ubiquitin-protein ligase NEDD4-like T218D, Q96PU5”, the abundance fitness was -0.347 ± 0.096.

Take “E3 ubiquitin-protein ligase NEDD4-like T218E, Q96PU5”: the abundance fitness was -0.122 ± 0.062.

As to “E3 ubiquitin-protein ligase NEDD4-like T218F, Q96PU5”, the abundance fitness is -0.028 ± 0.084.

“E3 ubiquitin-protein ligase NEDD4-like T218G, Q96PU5”: the abundance fitness was -0.146 ± 0.061.

With “E3 ubiquitin-protein ligase NEDD4-like T218H, Q96PU5”, the abundance fitness was -0.017 ± 0.1.

For “E3 ubiquitin-protein ligase NEDD4-like T218I, Q96PU5”, the abundance fitness was -0.118 ± 0.096.

With “E3 ubiquitin-protein ligase NEDD4-like T218K, Q96PU5”, the abundance fitness is -0.06 ± 0.072.

For the substance “E3 ubiquitin-protein ligase NEDD4-like T218M, Q96PU5”, the abundance fitness was -0.128 ± 0.089.

As for “E3 ubiquitin-protein ligase NEDD4-like T218N, Q96PU5”, the abundance fitness is -0.244 ± 0.11.

For the substance “E3 ubiquitin-protein ligase NEDD4-like T218Q, Q96PU5”, the abundance fitness is -0.218 ± 0.095.

For the substance “E3 ubiquitin-protein ligase NEDD4-like T218R, Q96PU5”, the abundance fitness was -0.184 ± 0.058.

For the substance “E3 ubiquitin-protein ligase NEDD4-like T218S, Q96PU5”, the abundance fitness is -0.236 ± 0.07.

Turning to “E3 ubiquitin-protein ligase NEDD4-like T218V, Q96PU5”, the abundance fitness was found to be 0.092 ± 0.056.

In the case of “E3 ubiquitin-protein ligase NEDD4-like T218W, Q96PU5”, the abundance fitness is -0.084 ± 0.075.

With “E3 ubiquitin-protein ligase NEDD4-like T218Y, Q96PU5”, the abundance fitness was 0.211 ± 0.1.

Regarding “E3 ubiquitin-protein ligase NEDD4-like T219A, Q96PU5”, the abundance fitness is -0.28 ± 0.057.

“E3 ubiquitin-protein ligase NEDD4-like T219C, Q96PU5”: the abundance fitness is -0.137 ± 0.09.

For “E3 ubiquitin-protein ligase NEDD4-like T219D, Q96PU5”, the abundance fitness is -0.595 ± 0.085.

“E3 ubiquitin-protein ligase NEDD4-like T219E, Q96PU5”: the abundance fitness was -0.145 ± 0.068.

With “E3 ubiquitin-protein ligase NEDD4-like T219F, Q96PU5”, the abundance fitness is -0.577 ± 0.075.

With “E3 ubiquitin-protein ligase NEDD4-like T219G, Q96PU5”, the abundance fitness is -0.632 ± 0.055.

Turning to “E3 ubiquitin-protein ligase NEDD4-like T219H, Q96PU5”, the abundance fitness was -0.232 ± 0.099.

Consider “E3 ubiquitin-protein ligase NEDD4-like T219I, Q96PU5”, for which the abundance fitness is -0.56 ± 0.081.

On to “E3 ubiquitin-protein ligase NEDD4-like T219K, Q96PU5”, for which the abundance fitness is -0.157 ± 0.099.

Take “E3 ubiquitin-protein ligase NEDD4-like T219L, Q96PU5”: the abundance fitness was -0.623 ± 0.076.

On to “E3 ubiquitin-protein ligase NEDD4-like T219M, Q96PU5”, for which the abundance fitness is -0.285 ± 0.091.

As for “E3 ubiquitin-protein ligase NEDD4-like T219N, Q96PU5”, the abundance fitness was -0.221 ± 0.067.

Turning to “E3 ubiquitin-protein ligase NEDD4-like T219P, Q96PU5”, the abundance fitness was -0.38 ± 0.1.

On to “E3 ubiquitin-protein ligase NEDD4-like T219R, Q96PU5”, for which the abundance fitness is -0.3 ± 0.057.

“E3 ubiquitin-protein ligase NEDD4-like T219S, Q96PU5”: the abundance fitness is -0.189 ± 0.086.

For “E3 ubiquitin-protein ligase NEDD4-like T219V, Q96PU5”, the abundance fitness was -0.348 ± 0.063.

With “E3 ubiquitin-protein ligase NEDD4-like T219W, Q96PU5”, the abundance fitness was -0.598 ± 0.075.

As to “E3 ubiquitin-protein ligase NEDD4-like T219Y, Q96PU5”, the abundance fitness was -0.451 ± 0.089.

Regarding “E3 ubiquitin-protein ligase NEDD4-like V203A, Q96PU5”, the abundance fitness was 0.023 ± 0.063.

Take “E3 ubiquitin-protein ligase NEDD4-like V203C, Q96PU5”: the abundance fitness is -0.066 ± 0.097.

For the substance “E3 ubiquitin-protein ligase NEDD4-like V203D, Q96PU5”, the abundance fitness was -0.143 ± 0.073.

Take “E3 ubiquitin-protein ligase NEDD4-like V203E, Q96PU5”: the abundance fitness was -0.033 ± 0.068.

“E3 ubiquitin-protein ligase NEDD4-like V203F, Q96PU5”: the abundance fitness was -0.055 ± 0.069.

With “E3 ubiquitin-protein ligase NEDD4-like V203G, Q96PU5”, the abundance fitness is -0.424 ± 0.053.

The substance “E3 ubiquitin-protein ligase NEDD4-like V203H, Q96PU5” returned an abundance fitness of 0.016 ± 0.11.

As for “E3 ubiquitin-protein ligase NEDD4-like V203I, Q96PU5”, the abundance fitness was -0.293 ± 0.097.

Take “E3 ubiquitin-protein ligase NEDD4-like V203K, Q96PU5”: the abundance fitness is -0.064 ± 0.078.

Consider “E3 ubiquitin-protein ligase NEDD4-like V203M, Q96PU5”, for which the abundance fitness is -0.096 ± 0.059.

As for “E3 ubiquitin-protein ligase NEDD4-like V203P, Q96PU5”, the abundance fitness is -0.368 ± 0.07.

Substance “E3 ubiquitin-protein ligase NEDD4-like V203Q, Q96PU5” displayed an abundance fitness of 0.019 ± 0.093.

“E3 ubiquitin-protein ligase NEDD4-like V203R, Q96PU5” came in with an abundance fitness of 0.007 ± 0.054.

For the substance “E3 ubiquitin-protein ligase NEDD4-like V203S, Q96PU5”, the abundance fitness was -0.144 ± 0.066.

In the case of “E3 ubiquitin-protein ligase NEDD4-like V203T, Q96PU5”, the abundance fitness was -0.115 ± 0.092.

“E3 ubiquitin-protein ligase NEDD4-like V203W, Q96PU5”: the abundance fitness was -0.347 ± 0.078.

With “E3 ubiquitin-protein ligase NEDD4-like V203Y, Q96PU5”, the abundance fitness is -0.227 ± 0.11.

As for “E3 ubiquitin-protein ligase NEDD4-like V212A, Q96PU5”, the abundance fitness is -0.102 ± 0.069.

Take “E3 ubiquitin-protein ligase NEDD4-like V212C, Q96PU5”: the abundance fitness was -0.097 ± 0.076.

Take “E3 ubiquitin-protein ligase NEDD4-like V212D, Q96PU5”: the abundance fitness is -0.458 ± 0.094.

As for “E3 ubiquitin-protein ligase NEDD4-like V212E, Q96PU5”, the abundance fitness is -0.068 ± 0.057.

As for “E3 ubiquitin-protein ligase NEDD4-like V212G, Q96PU5”, the abundance fitness is -0.417 ± 0.053.

With “E3 ubiquitin-protein ligase NEDD4-like V212H, Q96PU5”, the abundance fitness is -0.207 ± 0.12.

Consider “E3 ubiquitin-protein ligase NEDD4-like V212I, Q96PU5”, for which the abundance fitness is -0.356 ± 0.12.

As to “E3 ubiquitin-protein ligase NEDD4-like V212K, Q96PU5”, the abundance fitness was -0.974 ± 0.18.

As for “E3 ubiquitin-protein ligase NEDD4-like V212M, Q96PU5”, the abundance fitness is -0.076 ± 0.076.

Consider “E3 ubiquitin-protein ligase NEDD4-like V212N, Q96PU5”, for which the abundance fitness was -0.47 ± 0.15.

Consider “E3 ubiquitin-protein ligase NEDD4-like V212P, Q96PU5”, for which the abundance fitness was -0.485 ± 0.11.

Regarding “E3 ubiquitin-protein ligase NEDD4-like V212R, Q96PU5”, the abundance fitness was -0.196 ± 0.057.

Consider “E3 ubiquitin-protein ligase NEDD4-like V212S, Q96PU5”, for which the abundance fitness is -0.347 ± 0.071.

In the case of “E3 ubiquitin-protein ligase NEDD4-like V212T, Q96PU5”, the abundance fitness was -0.225 ± 0.094.

For the substance “E3 ubiquitin-protein ligase NEDD4-like V212W, Q96PU5”, the abundance fitness was -0.183 ± 0.083.

Take “E3 ubiquitin-protein ligase NEDD4-like V212Y, Q96PU5”: the abundance fitness was -0.003 ± 0.15.

For the substance “E3 ubiquitin-protein ligase NEDD4-like V229A, Q96PU5”, the abundance fitness is -0.001 ± 0.064.

For the substance “E3 ubiquitin-protein ligase NEDD4-like V229C, Q96PU5”, the abundance fitness is -0.203 ± 0.084.

Consider “E3 ubiquitin-protein ligase NEDD4-like V229D, Q96PU5”, for which the abundance fitness stood at 0.019 ± 0.068.

For the substance “E3 ubiquitin-protein ligase NEDD4-like V229E, Q96PU5”, the abundance fitness worked out at 0.003 ± 0.077.

In the case of “E3 ubiquitin-protein ligase NEDD4-like V229F, Q96PU5”, the abundance fitness is -0.057 ± 0.099.

Consider “E3 ubiquitin-protein ligase NEDD4-like V229G, Q96PU5”, for which the abundance fitness turned out to be 0.036 ± 0.057.

Regarding “E3 ubiquitin-protein ligase NEDD4-like V229H, Q96PU5”, the abundance fitness was -0.263 ± 0.1.

Take “E3 ubiquitin-protein ligase NEDD4-like V229I, Q96PU5”: the abundance fitness was -0.013 ± 0.099.

“E3 ubiquitin-protein ligase NEDD4-like V229K, Q96PU5”: the abundance fitness is -0.111 ± 0.095.

Regarding “E3 ubiquitin-protein ligase NEDD4-like V229L, Q96PU5”, the abundance fitness turned out to be 0.057 ± 0.056.

Regarding “E3 ubiquitin-protein ligase NEDD4-like V229N, Q96PU5”, the abundance fitness was -0.007 ± 0.11.

As to “E3 ubiquitin-protein ligase NEDD4-like V229Q, Q96PU5”, the abundance fitness is -0.133 ± 0.1.

For “E3 ubiquitin-protein ligase NEDD4-like V229R, Q96PU5”, the abundance fitness was -0.016 ± 0.061.
